According to article PMC3438196:

Molecular target: codon optimized Vif SLQ144-146AAA MAPPIT prey (pMG2-VifoptSLQ), P12504
Assay: MAPPIT
Conditions: chain shown with the change

B1: Apobec3G-GFP MAPPIT bait (pCEL-Apobec3G-GFP), Q9HC16 Y59N (protein)
chain: MKPHFRNTVERMYRDTFSYNFYNRPILSRRNTVWLCYEVKTKGPSRPPLDAKIFRGQVNSELKYHPEMRFFHWFSKWRKLHRDQEYEVTWYISWSPCTKCTRDMATFLAEDPKVTLTIFVARLYYFWDPDYQEALRSLCQKRDGPRATMKIMNYDEFQHCWSKFVYSQRELFEPWNNLPKYYILLHIMLGEILRHSMDPPTFTFNFNNEPWVRGRHETYLCYEVERMHNDTWVLLNQRRGFLCNQAPHKHGFLEGRHAELCFLDVIPFWKLDLDQDYRVTCFTSWSPCFSCAQEMAKFISKNKHVSLCIFTARIYDDQGRCQEGLRTLAEAGAKISIMTYSEFKHCWDTFVDHQGCPFQPWDGLDEHSQDLSGRLRAILQNQEN
Question: How did the percent of parent turn out when B1 was run?
Answer: Its percent of parent is 18 % of WT.

B2: Apobec3G-GFP MAPPIT bait (pCEL-Apobec3G-GFP), Q9HC16 W175R (protein)
chain: MKPHFRNTVERMYRDTFSYNFYNRPILSRRNTVWLCYEVKTKGPSRPPLDAKIFRGQVYSELKYHPEMRFFHWFSKWRKLHRDQEYEVTWYISWSPCTKCTRDMATFLAEDPKVTLTIFVARLYYFWDPDYQEALRSLCQKRDGPRATMKIMNYDEFQHCWSKFVYSQRELFEPRNNLPKYYILLHIMLGEILRHSMDPPTFTFNFNNEPWVRGRHETYLCYEVERMHNDTWVLLNQRRGFLCNQAPHKHGFLEGRHAELCFLDVIPFWKLDLDQDYRVTCFTSWSPCFSCAQEMAKFISKNKHVSLCIFTARIYDDQGRCQEGLRTLAEAGAKISIMTYSEFKHCWDTFVDHQGCPFQPWDGLDEHSQDLSGRLRAILQNQEN
Question: For B2, which percent of parent is on record?
Answer: Its percent of parent is 20 % of WT.

B3: Apobec3G-GFP MAPPIT bait (pCEL-Apobec3G-GFP), Q9HC16 R136S (protein)
chain: MKPHFRNTVERMYRDTFSYNFYNRPILSRRNTVWLCYEVKTKGPSRPPLDAKIFRGQVYSELKYHPEMRFFHWFSKWRKLHRDQEYEVTWYISWSPCTKCTRDMATFLAEDPKVTLTIFVARLYYFWDPDYQEALSSLCQKRDGPRATMKIMNYDEFQHCWSKFVYSQRELFEPWNNLPKYYILLHIMLGEILRHSMDPPTFTFNFNNEPWVRGRHETYLCYEVERMHNDTWVLLNQRRGFLCNQAPHKHGFLEGRHAELCFLDVIPFWKLDLDQDYRVTCFTSWSPCFSCAQEMAKFISKNKHVSLCIFTARIYDDQGRCQEGLRTLAEAGAKISIMTYSEFKHCWDTFVDHQGCPFQPWDGLDEHSQDLSGRLRAILQNQEN
Question: For B3, which percent of parent is on record?
Answer: The percent of parent was 53 % of WT.

B4: Apobec3G-GFP MAPPIT bait (pCEL-Apobec3G-GFP), Q9HC16 R24G (protein)
chain: MKPHFRNTVERMYRDTFSYNFYNGPILSRRNTVWLCYEVKTKGPSRPPLDAKIFRGQVYSELKYHPEMRFFHWFSKWRKLHRDQEYEVTWYISWSPCTKCTRDMATFLAEDPKVTLTIFVARLYYFWDPDYQEALRSLCQKRDGPRATMKIMNYDEFQHCWSKFVYSQRELFEPWNNLPKYYILLHIMLGEILRHSMDPPTFTFNFNNEPWVRGRHETYLCYEVERMHNDTWVLLNQRRGFLCNQAPHKHGFLEGRHAELCFLDVIPFWKLDLDQDYRVTCFTSWSPCFSCAQEMAKFISKNKHVSLCIFTARIYDDQGRCQEGLRTLAEAGAKISIMTYSEFKHCWDTFVDHQGCPFQPWDGLDEHSQDLSGRLRAILQNQEN
Question: B4 was tested. Which percent of parent did it give?
Answer: Its percent of parent is 32 % of WT.

B5: Apobec3G-GFP MAPPIT bait (pCEL-Apobec3G-GFP), Q9HC16 E191V (protein)
chain: MKPHFRNTVERMYRDTFSYNFYNRPILSRRNTVWLCYEVKTKGPSRPPLDAKIFRGQVYSELKYHPEMRFFHWFSKWRKLHRDQEYEVTWYISWSPCTKCTRDMATFLAEDPKVTLTIFVARLYYFWDPDYQEALRSLCQKRDGPRATMKIMNYDEFQHCWSKFVYSQRELFEPWNNLPKYYILLHIMLGVILRHSMDPPTFTFNFNNEPWVRGRHETYLCYEVERMHNDTWVLLNQRRGFLCNQAPHKHGFLEGRHAELCFLDVIPFWKLDLDQDYRVTCFTSWSPCFSCAQEMAKFISKNKHVSLCIFTARIYDDQGRCQEGLRTLAEAGAKISIMTYSEFKHCWDTFVDHQGCPFQPWDGLDEHSQDLSGRLRAILQNQEN
Question: How did the percent of parent turn out when B5 was run?
Answer: The percent of parent was 41 % of WT.

B6: Apobec3G-GFP MAPPIT bait (pCEL-Apobec3G-GFP), Q9HC16 V265M (protein)
chain: MKPHFRNTVERMYRDTFSYNFYNRPILSRRNTVWLCYEVKTKGPSRPPLDAKIFRGQVYSELKYHPEMRFFHWFSKWRKLHRDQEYEVTWYISWSPCTKCTRDMATFLAEDPKVTLTIFVARLYYFWDPDYQEALRSLCQKRDGPRATMKIMNYDEFQHCWSKFVYSQRELFEPWNNLPKYYILLHIMLGEILRHSMDPPTFTFNFNNEPWVRGRHETYLCYEVERMHNDTWVLLNQRRGFLCNQAPHKHGFLEGRHAELCFLDMIPFWKLDLDQDYRVTCFTSWSPCFSCAQEMAKFISKNKHVSLCIFTARIYDDQGRCQEGLRTLAEAGAKISIMTYSEFKHCWDTFVDHQGCPFQPWDGLDEHSQDLSGRLRAILQNQEN
Question: For B6, which percent of parent is on record?
Answer: Its percent of parent is 92 % of WT.

B7: Apobec3G-GFP MAPPIT bait (pCEL-Apobec3G-GFP), Q9HC16 D130Y (protein)
chain: MKPHFRNTVERMYRDTFSYNFYNRPILSRRNTVWLCYEVKTKGPSRPPLDAKIFRGQVYSELKYHPEMRFFHWFSKWRKLHRDQEYEVTWYISWSPCTKCTRDMATFLAEDPKVTLTIFVARLYYFWDPYYQEALRSLCQKRDGPRATMKIMNYDEFQHCWSKFVYSQRELFEPWNNLPKYYILLHIMLGEILRHSMDPPTFTFNFNNEPWVRGRHETYLCYEVERMHNDTWVLLNQRRGFLCNQAPHKHGFLEGRHAELCFLDVIPFWKLDLDQDYRVTCFTSWSPCFSCAQEMAKFISKNKHVSLCIFTARIYDDQGRCQEGLRTLAEAGAKISIMTYSEFKHCWDTFVDHQGCPFQPWDGLDEHSQDLSGRLRAILQNQEN
Question: With B7 as the binder, how does the percent of parent read?
Answer: Its percent of parent is 43 % of WT.

B8: Apobec3G-GFP MAPPIT bait (pCEL-Apobec3G-GFP), Q9HC16 F157I (protein)
chain: MKPHFRNTVERMYRDTFSYNFYNRPILSRRNTVWLCYEVKTKGPSRPPLDAKIFRGQVYSELKYHPEMRFFHWFSKWRKLHRDQEYEVTWYISWSPCTKCTRDMATFLAEDPKVTLTIFVARLYYFWDPDYQEALRSLCQKRDGPRATMKIMNYDEIQHCWSKFVYSQRELFEPWNNLPKYYILLHIMLGEILRHSMDPPTFTFNFNNEPWVRGRHETYLCYEVERMHNDTWVLLNQRRGFLCNQAPHKHGFLEGRHAELCFLDVIPFWKLDLDQDYRVTCFTSWSPCFSCAQEMAKFISKNKHVSLCIFTARIYDDQGRCQEGLRTLAEAGAKISIMTYSEFKHCWDTFVDHQGCPFQPWDGLDEHSQDLSGRLRAILQNQEN
Question: Which percent of parent does the source give for B8 here?
Answer: Its percent of parent is 39 % of WT.

B9: Apobec3G-GFP MAPPIT bait (pCEL-Apobec3G-GFP), Q9HC16 W94R (protein)
chain: MKPHFRNTVERMYRDTFSYNFYNRPILSRRNTVWLCYEVKTKGPSRPPLDAKIFRGQVYSELKYHPEMRFFHWFSKWRKLHRDQEYEVTWYISRSPCTKCTRDMATFLAEDPKVTLTIFVARLYYFWDPDYQEALRSLCQKRDGPRATMKIMNYDEFQHCWSKFVYSQRELFEPWNNLPKYYILLHIMLGEILRHSMDPPTFTFNFNNEPWVRGRHETYLCYEVERMHNDTWVLLNQRRGFLCNQAPHKHGFLEGRHAELCFLDVIPFWKLDLDQDYRVTCFTSWSPCFSCAQEMAKFISKNKHVSLCIFTARIYDDQGRCQEGLRTLAEAGAKISIMTYSEFKHCWDTFVDHQGCPFQPWDGLDEHSQDLSGRLRAILQNQEN
Question: For B9, which percent of parent is on record?
Answer: Its percent of parent is 27 % of WT.

B10: Apobec3G-GFP MAPPIT bait (pCEL-Apobec3G-GFP), Q9HC16 R238C (protein)
chain: MKPHFRNTVERMYRDTFSYNFYNRPILSRRNTVWLCYEVKTKGPSRPPLDAKIFRGQVYSELKYHPEMRFFHWFSKWRKLHRDQEYEVTWYISWSPCTKCTRDMATFLAEDPKVTLTIFVARLYYFWDPDYQEALRSLCQKRDGPRATMKIMNYDEFQHCWSKFVYSQRELFEPWNNLPKYYILLHIMLGEILRHSMDPPTFTFNFNNEPWVRGRHETYLCYEVERMHNDTWVLLNQCRGFLCNQAPHKHGFLEGRHAELCFLDVIPFWKLDLDQDYRVTCFTSWSPCFSCAQEMAKFISKNKHVSLCIFTARIYDDQGRCQEGLRTLAEAGAKISIMTYSEFKHCWDTFVDHQGCPFQPWDGLDEHSQDLSGRLRAILQNQEN
Question: How did the percent of parent turn out when B10 was run?
Answer: The percent of parent was 55 % of WT.

B11: Apobec3G-GFP MAPPIT bait (pCEL-Apobec3G-GFP), Q9HC16 K270E (protein)
chain: MKPHFRNTVERMYRDTFSYNFYNRPILSRRNTVWLCYEVKTKGPSRPPLDAKIFRGQVYSELKYHPEMRFFHWFSKWRKLHRDQEYEVTWYISWSPCTKCTRDMATFLAEDPKVTLTIFVARLYYFWDPDYQEALRSLCQKRDGPRATMKIMNYDEFQHCWSKFVYSQRELFEPWNNLPKYYILLHIMLGEILRHSMDPPTFTFNFNNEPWVRGRHETYLCYEVERMHNDTWVLLNQRRGFLCNQAPHKHGFLEGRHAELCFLDVIPFWELDLDQDYRVTCFTSWSPCFSCAQEMAKFISKNKHVSLCIFTARIYDDQGRCQEGLRTLAEAGAKISIMTYSEFKHCWDTFVDHQGCPFQPWDGLDEHSQDLSGRLRAILQNQEN
Question: For B11, which percent of parent is on record?
Answer: The percent of parent was 58 % of WT.

B12: Apobec3G-GFP MAPPIT bait (pCEL-Apobec3G-GFP), Q9HC16 L27R (protein)
chain: MKPHFRNTVERMYRDTFSYNFYNRPIRSRRNTVWLCYEVKTKGPSRPPLDAKIFRGQVYSELKYHPEMRFFHWFSKWRKLHRDQEYEVTWYISWSPCTKCTRDMATFLAEDPKVTLTIFVARLYYFWDPDYQEALRSLCQKRDGPRATMKIMNYDEFQHCWSKFVYSQRELFEPWNNLPKYYILLHIMLGEILRHSMDPPTFTFNFNNEPWVRGRHETYLCYEVERMHNDTWVLLNQRRGFLCNQAPHKHGFLEGRHAELCFLDVIPFWKLDLDQDYRVTCFTSWSPCFSCAQEMAKFISKNKHVSLCIFTARIYDDQGRCQEGLRTLAEAGAKISIMTYSEFKHCWDTFVDHQGCPFQPWDGLDEHSQDLSGRLRAILQNQEN
Question: For B12, which percent of parent is on record?
Answer: The percent of parent was 26 % of WT.

B13: Apobec3G-GFP MAPPIT bait (pCEL-Apobec3G-GFP), Q9HC16 Y222N (protein)
chain: MKPHFRNTVERMYRDTFSYNFYNRPILSRRNTVWLCYEVKTKGPSRPPLDAKIFRGQVYSELKYHPEMRFFHWFSKWRKLHRDQEYEVTWYISWSPCTKCTRDMATFLAEDPKVTLTIFVARLYYFWDPDYQEALRSLCQKRDGPRATMKIMNYDEFQHCWSKFVYSQRELFEPWNNLPKYYILLHIMLGEILRHSMDPPTFTFNFNNEPWVRGRHETYLCNEVERMHNDTWVLLNQRRGFLCNQAPHKHGFLEGRHAELCFLDVIPFWKLDLDQDYRVTCFTSWSPCFSCAQEMAKFISKNKHVSLCIFTARIYDDQGRCQEGLRTLAEAGAKISIMTYSEFKHCWDTFVDHQGCPFQPWDGLDEHSQDLSGRLRAILQNQEN
Question: B13 was tested. Which percent of parent did it give?
Answer: Its percent of parent is 12 % of WT.

B14: Apobec3G-GFP MAPPIT bait (pCEL-Apobec3G-GFP), Q9HC16 W127R (protein)
chain: MKPHFRNTVERMYRDTFSYNFYNRPILSRRNTVWLCYEVKTKGPSRPPLDAKIFRGQVYSELKYHPEMRFFHWFSKWRKLHRDQEYEVTWYISWSPCTKCTRDMATFLAEDPKVTLTIFVARLYYFRDPDYQEALRSLCQKRDGPRATMKIMNYDEFQHCWSKFVYSQRELFEPWNNLPKYYILLHIMLGEILRHSMDPPTFTFNFNNEPWVRGRHETYLCYEVERMHNDTWVLLNQRRGFLCNQAPHKHGFLEGRHAELCFLDVIPFWKLDLDQDYRVTCFTSWSPCFSCAQEMAKFISKNKHVSLCIFTARIYDDQGRCQEGLRTLAEAGAKISIMTYSEFKHCWDTFVDHQGCPFQPWDGLDEHSQDLSGRLRAILQNQEN
Question: With B14 as the binder, how does the percent of parent read?
Answer: Its percent of parent is 16 % of WT.
